Measured values taken from patent US20250361268A1, “NOVEL ANTI-INFLAMMATORY PEPTIDE AND USE THEREOF” (NOVACELL TECHNOLOGY INC., priority 2022, published 2025).

T1: formyl peptide receptor 2 (FPR2) (UniProt P25090 1-351, limits assumed)
T1 sequence (looked up): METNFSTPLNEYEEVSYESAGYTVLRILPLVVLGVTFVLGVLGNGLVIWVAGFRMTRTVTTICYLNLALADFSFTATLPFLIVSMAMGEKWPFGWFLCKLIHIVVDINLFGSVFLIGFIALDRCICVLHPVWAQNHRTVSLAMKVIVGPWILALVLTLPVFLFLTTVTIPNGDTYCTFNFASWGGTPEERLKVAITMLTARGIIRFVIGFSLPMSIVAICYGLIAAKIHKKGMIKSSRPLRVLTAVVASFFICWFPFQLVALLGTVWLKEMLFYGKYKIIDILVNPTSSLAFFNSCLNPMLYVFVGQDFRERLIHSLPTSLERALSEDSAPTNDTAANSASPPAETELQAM

T2: FPR1 (UniProt P21462 1-350, limits assumed)
T2 sequence (looked up): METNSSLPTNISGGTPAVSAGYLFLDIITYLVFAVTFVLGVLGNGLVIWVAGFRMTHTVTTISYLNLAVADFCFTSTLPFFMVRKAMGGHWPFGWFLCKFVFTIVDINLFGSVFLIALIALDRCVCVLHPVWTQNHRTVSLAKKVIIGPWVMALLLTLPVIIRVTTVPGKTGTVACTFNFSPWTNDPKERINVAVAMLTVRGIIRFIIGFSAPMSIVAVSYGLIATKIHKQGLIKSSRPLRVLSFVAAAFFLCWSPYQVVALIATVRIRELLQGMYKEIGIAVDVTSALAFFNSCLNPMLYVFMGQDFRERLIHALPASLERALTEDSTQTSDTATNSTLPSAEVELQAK


Molecular target: T1, formyl peptide receptor 2 (FPR2)
Experiment: cell-based or functional assay

Binder | EC50 for [Ca2+] [µM]
RWRYKPM (HELM PEPTIDE1{[CCCC(=O)[*:2]].R.W.R.Y.K.P.[dM].[am]}$$$$V2.0; SMILES CCCC(=O)N[C@@H](CCCNC(=N)N)C(=O)N[C@@H](Cc1c[nH]c2ccccc12)C(=O)N[C@@H](CCCNC(=N)N)C(=O)N[C@@H](Cc1ccc(O)cc1)C(=O)N[C@@H](CCCCN)C(=O)N1CCC[C@H]1C(=O)N[C@H](CCSC)C(N)=O) [peptide of SEQ ID NO 75] | < 0.01
WRYKPM (HELM PEPTIDE1{[ac].W.R.Y.K.P.[dM].[am]}$$$$V2.0; SMILES CSCC[C@@H](NC(=O)[C@@H]1CCCN1C(=O)[C@H](CCCCN)NC(=O)[C@H](Cc1ccc(O)cc1)NC(=O)[C@H](CCCNC(=N)N)NC(=O)[C@H](Cc1c[nH]c2ccccc12)NC(C)=O)C(N)=O) [peptide of SEQ ID NO 76] | < 0.01

Molecular target: T2, FPR1
Experiment: cell-based or functional assay

EC50 for [Ca2+] [µM] | Binder
> 10 | MRYKYM (HELM PEPTIDE1{[ac].M.R.Y.K.Y.[dM].[am]}$$$$V2.0; SMILES CSCC[C@H](NC(C)=O)C(=O)N[C@@H](CCCNC(=N)N)C(=O)N[C@@H](Cc1ccc(O)cc1)C(=O)N[C@@H](CCCCN)C(=O)N[C@@H](Cc1ccc(O)cc1)C(=O)N[C@H](CCSC)C(N)=O) [peptide of SEQ ID NO 42]
> 10 | RMRYKYM (HELM PEPTIDE1{[CCCCCCCC(=O)[*:2]].R.M.R.Y.K.Y.[dM].[am]}$$$$V2.0; SMILES CCCCCCCC(=O)N[C@@H](CCCNC(=N)N)C(=O)N[C@@H](CCSC)C(=O)N[C@@H](CCCNC(=N)N)C(=O)N[C@@H](Cc1ccc(O)cc1)C(=O)N[C@@H](CCCCN)C(=O)N[C@@H](Cc1ccc(O)cc1)C(=O)N[C@H](CCSC)C(N)=O) [peptide of SEQ ID NO 40]

Second part, the binder before the results:

Binder | EC50 for [Ca2+] [µM]
RWRYKYM (HELM PEPTIDE1{R.W.R.Y.K.Y.[dM].[am]}$$$$V2.0; N-terminus assumed; SMILES CSCC[C@@H](NC(=O)[C@H](Cc1ccc(O)cc1)NC(=O)[C@H](CCCCN)NC(=O)[C@H](Cc1ccc(O)cc1)NC(=O)[C@H](CCCNC(=N)N)NC(=O)[C@H](Cc1c[nH]c2ccccc12)NC(=O)[C@@H](N)CCCNC(=N)N)C(N)=O) [peptide of SEQ ID NO 32] | > 10
MKYKVM (HELM PEPTIDE1{[CCCCCCCC(=O)[*:2]].M.K.Y.K.V.[dM].[am]}$$$$V2.0; SMILES CCCCCCCC(=O)N[C@@H](CCSC)C(=O)N[C@@H](CCCCN)C(=O)N[C@@H](Cc1ccc(O)cc1)C(=O)N[C@@H](CCCCN)C(=O)N[C@H](C(=O)N[C@H](CCSC)C(N)=O)C(C)C) [peptide of SEQ ID NO 20] | > 10
RMRYKYM (HELM PEPTIDE1{[ac].R.M.R.Y.K.Y.[dM].[am]}$$$$V2.0; SMILES CSCC[C@H](NC(=O)[C@H](CCCNC(=N)N)NC(C)=O)C(=O)N[C@@H](CCCNC(=N)N)C(=O)N[C@@H](Cc1ccc(O)cc1)C(=O)N[C@@H](CCCCN)C(=O)N[C@@H](Cc1ccc(O)cc1)C(=O)N[C@H](CCSC)C(N)=O) [peptide of SEQ ID NO 39] | > 10
RWRYKYM (HELM PEPTIDE1{[CCCCCCCC(=O)[*:2]].R.W.R.Y.K.Y.[dM].[am]}$$$$V2.0; SMILES CCCCCCCC(=O)N[C@@H](CCCNC(=N)N)C(=O)N[C@@H](Cc1c[nH]c2ccccc12)C(=O)N[C@@H](CCCNC(=N)N)C(=O)N[C@@H](Cc1ccc(O)cc1)C(=O)N[C@@H](CCCCN)C(=O)N[C@@H](Cc1ccc(O)cc1)C(=O)N[C@H](CCSC)C(N)=O) [peptide of SEQ ID NO 34] | > 10
